# Experimental data from paper PMC10370356, “Molecular dissection studies of TAC1, a transcription activator of Candida drug resistance genes of the human pathogenic fungus Candida albicans” (Frontiers in Microbiology, 2023).
# T1: His-tagged C. albicans TATA box Binding Protein (TBP) (C. albicans, UniProt O43133 1-238)
# T1 construct: Vector pET28a; fusion protein said to be 30 kDa; also called TBP1; TBP-pET28a; source: E. coli BL21 (DE3), purified (Ni-NTA)
# T1 sequence: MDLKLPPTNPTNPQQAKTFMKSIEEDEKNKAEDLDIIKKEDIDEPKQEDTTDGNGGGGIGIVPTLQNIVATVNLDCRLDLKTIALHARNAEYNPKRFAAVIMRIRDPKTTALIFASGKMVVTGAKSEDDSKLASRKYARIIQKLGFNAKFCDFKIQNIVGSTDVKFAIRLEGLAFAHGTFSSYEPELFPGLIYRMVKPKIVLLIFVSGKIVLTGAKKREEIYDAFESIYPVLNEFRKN
# B1: GST-tagged Acidic Activation Domain (AAD) of Tac1p (domain or fragment)
# chain: MNPSPTITNNTYNSNINTGSNSTGEPQVCYAQSPSYNASLSNIINNESTGRSPATSTSINQSMMNENYDLFNDYLIDNSAVNLPFSQFNNLPNFFFDNNLGI
# notes: amplified from genomic DNA of strain SC5314; Vector pGEX-KG; fusion protein said to be 33 kDa; several closely spaced bands (degradation) on the anti-GST blot; The introduction gives other limits for the AAD (nucleotides 1354-2946); also called Tac1-AAD; TAC1-AAD; source: E. coli BL21 (DE3), purified (Glutathione Sepharose 4B)
# Target: T1, His-tagged C. albicans TATA box Binding …
# Test: pull-down; GST-AAD and His-TBP incubated with Glutathione Sepharose 4B beads, 3 h, 4 C, 20 mM HEPES pH 7.5, 200 mM NaCl, 0.1 mM EDTA, 10% glycerol, 0.1% NP-40; washes with 500 mM NaCl; eluted with 10 mM reduced glutathione; immunoblot with anti-GST and anti-His
# Settings: both partners purified
binder,measurement,value
B1,binding result,binds
